B1: CD3 full-length antibody CQ54 (antibody, V domains shown)
VH: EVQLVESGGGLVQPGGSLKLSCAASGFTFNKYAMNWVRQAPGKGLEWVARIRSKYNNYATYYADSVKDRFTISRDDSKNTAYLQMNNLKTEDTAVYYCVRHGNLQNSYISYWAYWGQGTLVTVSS
VL: QTVVTQEPSLTVSPGGTVTLTCGSSTGPVTGGNYPNWVQQKPGQAPRGLIGGTKFLAPGTPARFSGSLLGGKAALTLSGVQPEDEAEYYCVLWESNRWVFGGGTKLTVLT
notes: Includes huVH5 and huVL5
B2: OKT3 antibody (control antibody) (antibody, V domains shown)
VH: not shown
VL: QIVLTQSPAIMSASPGEKVTMTCSASSSVSYMNWYQQKSGTSPKRWIYDTSKLASGVPAHFRGSGSGTSYSLTISGMEAEDAATYYCQQWSSNPFTFGSGTKLEINR

Experiments:
[1] = target: T1, human CD3E protein (Example 4.1) (human, UniProt P07766 23-126); assay: Fortebio (BLI), antibody on protein A sensor, CD3E diluted from 100 nM
T1 construct: extracellular domain

[2] = target: T2, human CD3 on Jurkat cells (human CD3+ cell line) (human, UniProt P07766 23-207); assay: flow cytometry on Jurkat cells, anti hFC-APC detection
T2 construct: whole, on cells; Also used for the T cells of human PBMC in the CD69 assays; also called human CD3 positive cells; CD3 on T cells of PBMC

[3] = target: T3, monkey CD3E protein (Examples 4.2 and 7) (monkey, UniProt Q95LI5 22-117); assay: ELISA on monkey CD3E
T3 construct: extracellular domain
T3 sequence (looked up): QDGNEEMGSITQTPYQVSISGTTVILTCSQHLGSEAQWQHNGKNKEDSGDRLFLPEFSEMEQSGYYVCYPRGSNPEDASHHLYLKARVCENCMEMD

[4] = target: T3, monkey CD3E protein (Examples 4.2 and 7); assay: ELISA

T1 sequence (P07766 23-126): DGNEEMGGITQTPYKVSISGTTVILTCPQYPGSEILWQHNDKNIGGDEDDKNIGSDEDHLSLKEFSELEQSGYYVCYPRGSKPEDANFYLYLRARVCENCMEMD
T2 sequence (P07766 23-207): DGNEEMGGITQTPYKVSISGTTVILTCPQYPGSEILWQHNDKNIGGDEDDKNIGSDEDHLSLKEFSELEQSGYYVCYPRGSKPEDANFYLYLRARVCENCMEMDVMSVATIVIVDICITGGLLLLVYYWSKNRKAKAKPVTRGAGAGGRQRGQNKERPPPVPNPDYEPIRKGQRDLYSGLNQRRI

Binder	Kd [1] [nM]	koff [1] [s⁻¹]	kon [1] [M⁻¹ s⁻¹]	EC50 [2] [µg/mL]	EC50 [3] [µg/mL]	binding result [4]
B1	0.97	0.000604	621000	0.023	0.375	
B2						no binding

Reference: patent publication US20240360216A1 (NOVOPROTEIN SCIENTIFIC, published 2024)
